Data set [1] concerns the target T1, acarbose-preferred glucosidase (Apg) (Klebsiella grimontii, UniProt A0ABD7ANA7, DEL138-152).
T1 sequence (A0ABD7ANA7 1-605 DEL138-152): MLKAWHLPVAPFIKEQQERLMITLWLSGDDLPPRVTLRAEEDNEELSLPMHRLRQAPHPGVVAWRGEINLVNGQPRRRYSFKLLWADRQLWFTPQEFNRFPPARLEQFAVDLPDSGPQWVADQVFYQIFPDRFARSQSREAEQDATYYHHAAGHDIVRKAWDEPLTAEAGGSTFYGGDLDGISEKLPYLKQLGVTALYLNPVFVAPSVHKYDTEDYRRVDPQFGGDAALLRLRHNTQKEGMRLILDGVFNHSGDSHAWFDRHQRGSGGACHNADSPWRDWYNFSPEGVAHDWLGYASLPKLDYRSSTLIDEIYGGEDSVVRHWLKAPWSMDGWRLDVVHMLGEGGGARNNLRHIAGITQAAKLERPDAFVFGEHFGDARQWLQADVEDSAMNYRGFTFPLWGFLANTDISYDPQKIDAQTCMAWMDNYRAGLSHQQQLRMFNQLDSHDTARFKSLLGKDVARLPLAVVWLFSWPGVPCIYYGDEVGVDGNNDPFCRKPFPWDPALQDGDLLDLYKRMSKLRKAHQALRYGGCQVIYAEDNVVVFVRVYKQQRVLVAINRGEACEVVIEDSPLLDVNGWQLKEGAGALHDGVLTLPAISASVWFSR
Kind of data set: X-ray crystal structure. In kind it is binding.

Data set [2] addresses acarbose-preferred glucosidase (Apg), wild type (K. grimontii TD1). The data set is described as follows: SEC. (In general: In gel filtration, larger molecules generally elute earlier.)
Substrate in data set [3]: C[C@H]1O[C@H](O[C@H]2[C@H](O)[C@@H](O)[C@@H](O[C@H]3[C@H](O)[C@@H](O)C(O)O[C@@H]3CO)O[C@@H]2CO)[C@H](O)[C@@H](O)[C@@H]1N[C@H]1C=C(CO)[C@@H](O)[C@H](O)[C@H]1O
Kind of data set: purified protein. The settings on record: active site; D448 nucleophile, E373/R334 proton donor.

Substrate in data set [4]: C[C@H]1O[C@H](O[C@H]2[C@H](O)[C@@H](O)[C@@H](O)O[C@@H]2CO)[C@H](O)[C@@H](O)[C@@H]1N[C@H]1C=C(CO)[C@@H](O)[C@H](O)[C@H]1O
The data set is described as follows: purified protein. Particulars: active site.

From PMC12373829 (Nature Communications, 2025) come the findings set out here.

Consider `OC[C@H]1O[C@H](O)[C@H](O)[C@@H](O)[C@@H]1O` [glucose], for which, in data set [1], the “X-ray crystal structure (co-crystallization)” value is listed as “Crystals of the glucose complex were obtained by co-crystallization of the ∆loop A mutant”. The term stoichiometry N denotes the number of molecules, sites or subunits per partner or assembly. “acarbose-preferred glucosidase (Apg), wild type (enzyme)” showed a stoichiometry N in data set [2] of 2.

B1: acarbose-preferred glucosidase (Apg) (Klebsiella grimontii) (protein)
chain: T1 sequence (A0ABD7ANA7 1-605 DEL138-152)
For orientation: Km means the concentration of substrate that gives half-maximal velocity. As for B1, the Km in “purified protein [3]” worked out at 2.600 ± 0.652 µM; in the data set “purified protein [4]”, 6.642 ± 0.371 µM.
